This is an account of results in patent US20250171562A1.

B1: NIgG4E1A1(G4S)2 (Fc fusion)
chain 1: DVQLQESGGGLVQAGGSLRLSCLASGRTFTTTSGYNMGWFRQAPGKEREFVAGIKWVSGSNRAYAESVKGRFTISRDNAKNTVYLQMNSLKPEDTAVYYCAAATGQSYVPIREYEYVYWGQGTQVTVSGGGGSGGGGSGPPCPPCPAPEFLGGPSVFLFPPKPKDTLMISRTPEVTCVVVDVSQEDPEVQFNWYVDGVEVHNAKTKPREEQFNSTYRVVSVLTVLHQDWLNGKEYKCKVSNKGLPSSIEKTISKAKGQPREPQVYTLPPCQEEMTKNQVSLWCLVKGFYPSDIAVEWESNGQPENNYKTTPPVLDSDGSFFLYSRLTVDKSRWQEGNVFSCSVMHEALHNHYTQKSLSLSLGK
chain 2: EVQLLESGGGLVQPGGSLRLSCAASGFTFGNYDMAWVRQAPGKRPEWVSSIDTGGDITHYADSVKGRFTISRDNAKNTLYLQMNSLRPEDTAVYWCATDEEYALGPNEFDYYGQGTLVTVSSGGGGSGGGGSGPPCPPCPAPEFLGGPSVFLFPPKPKDTLMISRTPEVTCVVVDVSQEDPEVQFNWYVDGVEVHNAKTKPREEQFNSTYRVVSVLTVLHQDWLNGKEYKCKVSNKGLPSSIEKTISKAKGQPREPQVCTLPPSQEEMTKNQVSLSCAVKGFYPSDIAVEWESNGQPENNYKTTPPVLDSDGSFFLVSRLTVDKSRWQEGNVFSCSVMHEALHNHYTQKSLSLSLGK
B2: NIgG4E1A1(G4S)3 (Fc fusion)
chain 1: DVQLQESGGGLVQAGGSLRLSCLASGRTFTTTSGYNMGWFRQAPGKEREFVAGIKWVSGSNRAYAESVKGRFTISRDNAKNTVYLQMNSLKPEDTAVYYCAAATGQSYVPIREYEYVYWGQGTQVTVSGGGGSGGGGSGGGGSGPPCPPCPAPEFLGGPSVFLFPPKPKDTLMISRTPEVTCVVVDVSQEDPEVQFNWYVDGVEVHNAKTKPREEQFNSTYRVVSVLTVLHQDWLNGKEYKCKVSNKGLPSSIEKTISKAKGQPREPQVYTLPPCQEEMTKNQVSLWCLVKGFYPSDIAVEWESNGQPENNYKTTPPVLDSDGSFFLYSRLTVDKSRWQEGNVFSCSVMHEALHNHYTQKSLSLSLGK
chain 2: EVQLLESGGGLVQPGGSLRLSCAASGFTFGNYDMAWVRQAPGKRPEWVSSIDTGGDITHYADSVKGRFTISRDNAKNTLYLQMNSLRPEDTAVYWCATDEEYALGPNEFDYYGQGTLVTVSSGGGGSGGGGSGGGGSGPPCPPCPAPEFLGGPSVFLFPPKPKDTLMISRTPEVTCVVVDVSQEDPEVQFNWYVDGVEVHNAKTKPREEQFNSTYRVVSVLTVLHQDWLNGKEYKCKVSNKGLPSSIEKTISKAKGQPREPQVCTLPPSQEEMTKNQVSLSCAVKGFYPSDIAVEWESNGQPENNYKTTPPVLDSDGSFFLVSRLTVDKSRWQEGNVFSCSVMHEALHNHYTQKSLSLSLGK
B3: NIgG4E1A1(RS) (Fc fusion)
chain 1: DVQLQESGGGLVQAGGSLRLSCLASGRTFTTTSGYNMGWFRQAPGKEREFVAGIKWVSGSNRAYAESVKGRFTISRDNAKNTVYLQMNSLKPEDTAVYYCAAATGQSYVPIREYEYVYWGQGTQVTVSRSGPPCPPCPAPEFLGGPSVFLFPPKPKDTLMISRTPEVTCVVVDVSQEDPEVQFNWYVDGVEVHNAKTKPREEQFNSTYRVVSVLTVLHQDWLNGKEYKCKVSNKGLPSSIEKTISKAKGQPREPQVYTLPPCQEEMTKNQVSLWCLVKGFYPSDIAVEWESNGQPENNYKTTPPVLDSDGSFFLYSRLTVDKSRWQEGNVFSCSVMHEALHNHYTQKSLSLSLGK
chain 2: EVQLLESGGGLVQPGGSLRLSCAASGFTFGNYDMAWVRQAPGKRPEWVSSIDTGGDITHYADSVKGRFTISRDNAKNTLYLQMNSLRPEDTAVYWCATDEEYALGPNEFDYYGQGTLVTVSSRSGPPCPPCPAPEFLGGPSVFLFPPKPKDTLMISRTPEVTCVVVDVSQEDPEVQFNWYVDGVEVHNAKTKPREEQFNSTYRVVSVLTVLHQDWLNGKEYKCKVSNKGLPSSIEKTISKAKGQPREPQVCTLPPSQEEMTKNQVSLSCAVKGFYPSDIAVEWESNGQPENNYKTTPPVLDSDGSFFLVSRLTVDKSRWQEGNVFSCSVMHEALHNHYTQKSLSLSLGK
B4: NIgG4E1A1(G4S)1 (Fc fusion)
chain 1: DVQLQESGGGLVQAGGSLRLSCLASGRTFTTTSGYNMGWFRQAPGKEREFVAGIKWVSGSNRAYAESVKGRFTISRDNAKNTVYLQMNSLKPEDTAVYYCAAATGQSYVPIREYEYVYWGQGTQVTVSGGGGSGPPCPPCPAPEFLGGPSVFLFPPKPKDTLMISRTPEVTCVVVDVSQEDPEVQFNWYVDGVEVHNAKTKPREEQFNSTYRVVSVLTVLHQDWLNGKEYKCKVSNKGLPSSIEKTISKAKGQPREPQVYTLPPCQEEMTKNQVSLWCLVKGFYPSDIAVEWESNGQPENNYKTTPPVLDSDGSFFLYSRLTVDKSRWQEGNVFSCSVMHEALHNHYTQKSLSLSLGK
chain 2: EVQLLESGGGLVQPGGSLRLSCAASGFTFGNYDMAWVRQAPGKRPEWVSSIDTGGDITHYADSVKGRFTISRDNAKNTLYLQMNSLRPEDTAVYWCATDEEYALGPNEFDYYGQGTLVTVSSGGGGSGPPCPPCPAPEFLGGPSVFLFPPKPKDTLMISRTPEVTCVVVDVSQEDPEVQFNWYVDGVEVHNAKTKPREEQFNSTYRVVSVLTVLHQDWLNGKEYKCKVSNKGLPSSIEKTISKAKGQPREPQVCTLPPSQEEMTKNQVSLSCAVKGFYPSDIAVEWESNGQPENNYKTTPPVLDSDGSFFLVSRLTVDKSRWQEGNVFSCSVMHEALHNHYTQKSLSLSLGK
B5: CIgG4E1A1(G4S)1 (Fc fusion)
chain 1: GPPCPPCPAPEFLGGPSVFLFPPKPKDTLMISRTPEVTCVVVDVSQEDPEVQFNWYVDGVEVHNAKTKPREEQFNSTYRVVSVLTVLHQDWLNGKEYKCKVSNKGLPSSIEKTISKAKGQPREPQVYTLPPCQEEMTKNQVSLWCLVKGFYPSDIAVEWESNGQPENNYKTTPPVLDSDGSFFLYSRLTVDKSRWQEGNVFSCSVMHEALHNHYTQKSLSLSLGKGGGGSDVQLQESGGGLVQAGGSLRLSCLASGRTFTTTSGYNMGWFRQAPGKEREFVAGIKWVSGSNRAYAESVKGRFTISRDNAKNTVYLQMNSLKPEDTAVYYCAAATGQSYVPIREYEYVYWGQGTQVTVS
chain 2: GPPCPPCPAPEFLGGPSVFLFPPKPKDTLMISRTPEVTCVVVDVSQEDPEVQFNWYVDGVEVHNAKTKPREEQFNSTYRVVSVLTVLHQDWLNGKEYKCKVSNKGLPSSIEKTISKAKGQPREPQVCTLPPSQEEMTKNQVSLSCAVKGFYPSDIAVEWESNGQPENNYKTTPPVLDSDGSFFLVSRLTVDKSRWQEGNVFSCSVMHEALHNHYTQKSLSLSLGKGGGGSEVQLLESGGGLVQPGGSLRLSCAASGFTFGNYDMAWVRQAPGKRPEWVSSIDTGGDITHYADSVKGRFTISRDNAKNTLYLQMNSLRPEDTAVYWCATDEEYALGPNEFDYYGQGTLVTVSS
B6: CIgG4E1A1(RS) (Fc fusion)
chain 1: GPPCPPCPAPEFLGGPSVFLFPPKPKDTLMISRTPEVTCVVVDVSQEDPEVQFNWYVDGVEVHNAKTKPREEQFNSTYRVVSVLTVLHQDWLNGKEYKCKVSNKGLPSSIEKTISKAKGQPREPQVYTLPPCQEEMTKNQVSLWCLVKGFYPSDIAVEWESNGQPENNYKTTPPVLDSDGSFFLYSRLTVDKSRWQEGNVFSCSVMHEALHNHYTQKSLSLSLGKRSDVQLQESGGGLVQAGGSLRLSCLASGRTFTTTSGYNMGWFRQAPGKEREFVAGIKWVSGSNRAYAESVKGRFTISRDNAKNTVYLQMNSLKPEDTAVYYCAAATGQSYVPIREYEYVYWGQGTQVTVS
chain 2: GPPCPPCPAPEFLGGPSVFLFPPKPKDTLMISRTPEVTCVVVDVSQEDPEVQFNWYVDGVEVHNAKTKPREEQFNSTYRVVSVLTVLHQDWLNGKEYKCKVSNKGLPSSIEKTISKAKGQPREPQVCTLPPSQEEMTKNQVSLSCAVKGFYPSDIAVEWESNGQPENNYKTTPPVLDSDGSFFLVSRLTVDKSRWQEGNVFSCSVMHEALHNHYTQKSLSLSLGKRSEVQLLESGGGLVQPGGSLRLSCAASGFTFGNYDMAWVRQAPGKRPEWVSSIDTGGDITHYADSVKGRFTISRDNAKNTLYLQMNSLRPEDTAVYWCATDEEYALGPNEFDYYGQGTLVTVSS
B7: CIgG4D2A1(G4S)2 (Fc fusion)
chain 1: GPPCPPCPAPEFLGGPSVFLFPPKPKDTLMISRTPEVTCVVVDVSQEDPEVQFNWYVDGVEVHNAKTKPREEQFNSTYRVVSVLTVLHQDWLNGKEYKCKVSNKGLPSSIEKTISKAKGQPREPQVYTLPPCQEEMTKNQVSLWCLVKGFYPSDIAVEWESNGQPENNYKTTPPVLDSDGSFFLYSRLTVDKSRWQEGNVFSCSVMHEALHNHYTQKSLSLSLGKGGGGSGGGGSDVQLQESGGGLVEAGGSLRLSCVASGRTFSGWSMGWFRQAPGKEREFVAAISWVGSWIGGTVYSNSVKGRFTISRDNARTTVYLQMNSLKPEDTAVYFCAAANSETPRIFASEYDYWGQGTQVTVS
chain 2: GPPCPPCPAPEFLGGPSVFLFPPKPKDTLMISRTPEVTCVVVDVSQEDPEVQFNWYVDGVEVHNAKTKPREEQFNSTYRVVSVLTVLHQDWLNGKEYKCKVSNKGLPSSIEKTISKAKGQPREPQVCTLPPSQEEMTKNQVSLSCAVKGFYPSDIAVEWESNGQPENNYKTTPPVLDSDGSFFLVSRLTVDKSRWQEGNVFSCSVMHEALHNHYTQKSLSLSLGKGGGGSGGGGSEVQLLESGGGLVQPGGSLRLSCAASGFTFGNYDMAWVRQAPGKRPEWVSSIDTGGDITHYADSVKGRFTISRDNAKNTLYLQMNSLRPEDTAVYWCATDEEYALGPNEFDYYGQGTLVTVSS
B8: CIgG4D2A1(G4S)3 (Fc fusion)
chain 1: GPPCPPCPAPEFLGGPSVFLFPPKPKDTLMISRTPEVTCVVVDVSQEDPEVQFNWYVDGVEVHNAKTKPREEQFNSTYRVVSVLTVLHQDWLNGKEYKCKVSNKGLPSSIEKTISKAKGQPREPQVYTLPPCQEEMTKNQVSLWCLVKGFYPSDIAVEWESNGQPENNYKTTPPVLDSDGSFFLYSRLTVDKSRWQEGNVFSCSVMHEALHNHYTQKSLSLSLGKGGGGSGGGGSGGGGSDVQLQESGGGLVEAGGSLRLSCVASGRTFSGWSMGWFRQAPGKEREFVAAISWVGSWIGGTVYSNSVKGRFTISRDNARTTVYLQMNSLKPEDTAVYFCAAANSETPRIFASEYDYWGQGTQVTVS
chain 2: GPPCPPCPAPEFLGGPSVFLFPPKPKDTLMISRTPEVTCVVVDVSQEDPEVQFNWYVDGVEVHNAKTKPREEQFNSTYRVVSVLTVLHQDWLNGKEYKCKVSNKGLPSSIEKTISKAKGQPREPQVCTLPPSQEEMTKNQVSLSCAVKGFYPSDIAVEWESNGQPENNYKTTPPVLDSDGSFFLVSRLTVDKSRWQEGNVFSCSVMHEALHNHYTQKSLSLSLGKGGGGSGGGGSGGGGSEVQLLESGGGLVQPGGSLRLSCAASGFTFGNYDMAWVRQAPGKRPEWVSSIDTGGDITHYADSVKGRFTISRDNAKNTLYLQMNSLRPEDTAVYWCATDEEYALGPNEFDYYGQGTLVTVSS

In the assay the target is mixture of three Der p 2 specific recombinant human IgE clones H10, H12, P4E (human) (UniProt P01854). The assay is described as follows: RBL-SX38 IgE displacement, FACS.
Sequence of mixture of three Der p 2 specific recombinant human IgE clones H10, H12, P4E (human) (P01854 other isoform, or with tags, fused parts or gaps): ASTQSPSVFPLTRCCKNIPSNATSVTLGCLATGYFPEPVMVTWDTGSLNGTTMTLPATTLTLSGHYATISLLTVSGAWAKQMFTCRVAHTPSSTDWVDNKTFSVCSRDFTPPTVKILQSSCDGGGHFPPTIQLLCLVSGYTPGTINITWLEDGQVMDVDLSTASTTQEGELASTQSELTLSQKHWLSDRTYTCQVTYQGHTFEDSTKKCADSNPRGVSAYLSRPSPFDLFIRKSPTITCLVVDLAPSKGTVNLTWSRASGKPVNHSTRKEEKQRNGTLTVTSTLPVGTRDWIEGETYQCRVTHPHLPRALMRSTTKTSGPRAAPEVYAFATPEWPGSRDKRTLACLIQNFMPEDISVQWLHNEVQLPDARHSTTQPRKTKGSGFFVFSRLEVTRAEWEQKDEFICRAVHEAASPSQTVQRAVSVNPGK
Regarding B1, the EC50 came to 4.8 nM and the Max effect/effect 1 µM turned out to be 94%.

Take B2: the 50% effective concentration (EC50) stood at 3.7 nM and the Max effect/effect 1 µM was 98%.

As for B3, the EC50 is 8.7 nM and the Max effect/effect 1 µM was 97%.

For the molecule B4, the EC50 turned out to be 7.1 nM and the Max effect/effect 1 µM was determined as 96%.

Turning to B5, the half-maximal effective concentration (EC50) was found to be 96.1 nM and the Max effect/effect 1 µM worked out at 95%.

Turning to B6, the Max effect/effect 1 µM was determined as 9%.

As for B7, the EC50 came out at 39 nM and the Max effect/effect 1 µM worked out at 99%.

Consider B8, for which the EC50 worked out at 28.8 nM and the Max effect/effect 1 µM turned out to be 99%.
